Laboratory results published in patent US20220023385A1.

Assays:
[1] = target: FGFRs expressed on NIH3T3 cells; assay: equilibrium titration of His-tagged FGF1 on FGFR-expressing NIH3T3 cells at 4 °C, flow cytometry with anti-His antibody
[2] = target: FGFRs expressed on NIH3T3 cells; assay: cell-based or functional assay

| Substance | Kd [1] | inhibition of ERK phosphorylation induced by 1 nM wild type FGF1 in NIH3T3 cells (Western blot against phosphoERK) [2] |
| --- | --- | --- |
| recombinant soluble wild-type FGF1 with N-terminal 6x His tag (from UniProt P14210 16-155) (ligand) | 10 nM |  |
| FGF1 L131R mutant, recombinant soluble, His-tagged (from UniProt P14210 16-155) (ligand) |  | 1 nM |
